Results on 1 substance are retold here after article PMC4937337.

Usually Kd stands for the equilibrium constant for the complex coming apart. Higher therefore signals weaker binding.

The data set has as its system nsp1β;PCBP2 (PRRSV (SD01-08)?;human). Briefly: EMSA. Conditions: EMSA: 10 mM Hepes pH 7.6, 150 mM KCl, 2 mM MgCl2, 1 mM DTT, 0.5 mM ATP, 5% glycerol, 100 µg/ml porcine tRNA, RNase inhibitor; 10 nM RNA; 30°C 10 min (room …). For orientation: In EMSA bound probe runs differently from free probe, usually more slowly.

PRRSV -2/-1 PRF RNA wt (58 nt): the Kd was determined as 130 nM.
